Like-named read-outs stand apart in the source and are kept apart here. Values belong to the molecule of their own block, whether it stands above or below them.
Columns and labels:
hFKBP52 = target: T1, hFKBP52 (Homo sapiens, UniProt Q02790); experiment: Inhibition of peptidyl-prolyl cis-trans isomerase (PPIase) activity of hFKBP52; format: biochemical
T1 construct: The hFKBP52 open reading frame (ORF) was expressed in E. coli with a vector (pQE8, Qiagen Inc.); histidine tag (pQE8) (N, cleaved yes); Factor Xa cleavage site (Ile-Glu-Gly-Arg) (N, cleaved yes); made in house; host or cells: E. coli XA90
T1 sequence (Q02790 1-459): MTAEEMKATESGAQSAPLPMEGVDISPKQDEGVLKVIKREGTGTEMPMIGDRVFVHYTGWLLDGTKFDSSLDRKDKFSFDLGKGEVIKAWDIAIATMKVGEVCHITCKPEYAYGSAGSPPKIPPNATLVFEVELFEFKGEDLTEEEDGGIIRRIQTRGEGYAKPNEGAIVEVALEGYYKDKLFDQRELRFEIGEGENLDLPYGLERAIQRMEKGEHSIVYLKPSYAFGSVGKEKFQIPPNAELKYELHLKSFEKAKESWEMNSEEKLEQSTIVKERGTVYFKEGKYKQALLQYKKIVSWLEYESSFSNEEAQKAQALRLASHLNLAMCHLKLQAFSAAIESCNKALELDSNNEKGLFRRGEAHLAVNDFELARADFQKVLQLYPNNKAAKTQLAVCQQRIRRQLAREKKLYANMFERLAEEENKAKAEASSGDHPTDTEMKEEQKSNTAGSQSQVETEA
Experimental: The peptidyl-prolyl isomerization rate was determined by coupling isomerization of a prolyl-containing peptide to trans substrate hydrolysis by chymotrypsin (Fisher, G., et al., Nature 337:476-478 (1989)). The assay was performed according to Harrison and Stein (Biochem., 29:3813-3816 (1980) with modifications described by Park S. T., et al., J. Biol. Chem. 267:3316-3324 (1992). The tetrapeptide substrate succinyl-Ala-P1-Pro-Phe-p-nitroanilide, where P1=Leu, was used to determine specific activity and inhibition constants, and a series of peptide substrates with related structures (P1=Phe, Val, Ala, Gly, Glu or Lys) was used to determine substrate specificity. Protein concentrations of rhFKBP52 stock solutions were determined by a Coomassie Blue binding assay (Bradford, M., Anal. Biochem., 72:248-254 (1976)). FKBP52 (60 nM final) was added to a reaction mixture containing substrate (27 μM final) in 0.1M Tris-HCl, pH 7.8 at 15° C., and the solution was incubated in a 2 ml cuvette for 5 min at 15° C. […] For measurement of substrate specificity, the final FKBP52 concentration was adjusted so the Kobs was at least four-fold higher than knon-enz. Inhibition data were fit to an equation for tight-binding competitive inhibitors using KineTic™ software (BioKin, Ltd.) running on a Macintosh IIcx computer.

[1] = cited from earlier work
[2] = PPIase catalysis of the isomerization of tetrapeptide substrates (chymotrypsin-coupled assay); format: biochemical
Experimental: As described in detail in Example 2, the assay of Harrison and Stein (Harrison, R. K. and R. L. Stein, Biochemistry 29:3813-3816 (1990)) can be used to measure peptidyl prolyl cis-trans isomerization (PPIase) activity of FKBP52.
The peptidyl-prolyl isomerization rate was determined by coupling isomerization of a prolyl-containing peptide to trans substrate hydrolysis by chymotrypsin (Fisher, G., et al., Nature 337:476-478 (1989)). The assay was performed according to Harrison and Stein (Biochem., 29:3813-3816 ([…]) with modifications described by Park S. T., et al., J. Biol. Chem. 267:3316-3324 (1992). The tetrapeptide substrate succinyl-Ala-P1-Pro-Phe-p-nitroanilide, where P1=Leu, was used to determine specific activity and inhibition constants, and a series of peptide substrates with related structures (P1=Phe, Val, Ala, Gly, Glu or Lys) was used to determine substrate specificity. Protein concentrations of rhFKBP52 stock solutions were determined by a Coomassie Blue binding assay (Bradford, M., Anal. Biochem., 72:248-254 (1976)). FKBP52 (60 nM final) was added to a reaction mixture containing substrate (27 μM final) in 0.1M Tris-HCl, pH 7.8 at 15° C., and the solution was incubated in a 2 ml cuvette for 5 min at 15° C. (950 μl final) before adding chymotrypsin (100 μg ml^-1 final) to start reaction. For measurement of substrate specificity, the final FKBP52 concentration was adjusted so the Kobs was at least four-fold higher than knon-enz. Inhibition data were fit to an equation for tight-binding competitive inhibitors using KineTic™ software (BioKin, Ltd.) running on a Macintosh IIcx computer.

Molecule: CO[C@H]1C[C@@H]2CC[C@@H](C)[C@@](O)(O2)C(=O)C(=O)N2CCCC[C@H]2C(=O)O[C@H]([C@H](C)C[C@@H]2CC[C@@H](O)[C@H](OC)C2)CC(=O)[C@H](C)/C=C(\C)[C@@H](O)[C@@H](OC)C(=O)[C@H](C)C[C@H](C)/C=C/C=C/C=C/1C [rapamycin]
Ki (hFKBP52): 8 nM

Molecule: hFKBP12: recombinant human FK506 binding protein of Mr about 11,800, used as comparator PPIase
Specific activity at 15° C. ([1]; Substrate P1 = Ala, data from Park et al. 1992): 310000 M⁻¹ s⁻¹
Specific activity at 15° C. ([1]; Substrate P1 = Leu (Suc-Ala-Leu-Pro-Phe-pNA), data from Park et al. 1992, listed as FKBP12): 4.3e+06 M⁻¹ s⁻¹
Specific activity at 15° C. ([1]; Substrate P1 = Leu (Suc-Ala-Leu-Pro-Phe-pNA), data from Park et al. 1992): 4.3e+06 M⁻¹ s⁻¹
Specific activity at 15° C. ([1]; Substrate P1 = Phe, data from Park et al. 1992): 2e+06 M⁻¹ s⁻¹
Specific activity at 15° C. ([1]; Substrate P1 = Val, data from Park et al. 1992): 900000 M⁻¹ s⁻¹

Specific activity at 15° C. (PPIase, chymotrypsin-coupled assay) (Suc-Ala-Leu-Pro-Phe-pNA): 390000 M⁻¹ s⁻¹
Specific activity at 15° C. (PPIase, chymotrypsin-coupled assay) (Suc-Ala-Ala-Pro-Phe-pNA): 26000 M⁻¹ s⁻¹
Specific activity at 15° C. (PPIase, chymotrypsin-coupled assay) (Suc-Ala-Phe-Pro-Phe-pNA): 73000 M⁻¹ s⁻¹
Specific activity at 15° C. (PPIase, chymotrypsin-coupled assay) (Suc-Ala-Val-Pro-Phe-pNA): 39000 M⁻¹ s⁻¹
Molecule: recombinant human FKBP52 (Mr 52,000 FK506 binding protein) (enzyme)

B1: hFKBP52: Mr 52,000 FK506 binding protein; recombinant human form expressed in E. coli, 459 residues (SEQ ID NO: 26) (protein)
chain: T1 sequence (Q02790 1-459)
Specific activity at 15° C. ([2]; Substrate P1 = Ala): 26000 M⁻¹ s⁻¹
Specific activity at 15° C. ([2]; Substrate P1 = Leu (Suc-Ala-Leu-Pro-Phe-pNA)): 390000 M⁻¹ s⁻¹
Specific activity at 15° C. ([2]; Substrate P1 = Leu (Suc-Ala-Leu-Pro-Phe-pNA), listed as FKBP52): 390000 M⁻¹ s⁻¹
Specific activity at 15° C. ([2]; Substrate P1 = Phe): 73000 M⁻¹ s⁻¹
Specific activity at 15° C. ([2]; Substrate P1 = Val): 39000 M⁻¹ s⁻¹
Specific activity relative to recombinant human FKBP12 (rhFKBP12) ([2]; substrate Suc-Ala-Leu-Pro-Phe-pNA, 15° C.): approximately 10%

— patent publication US5763590A (Vertex Pharmaceuticals, Inc., priority 1994, dated 1998)
